From paper PMC5959072, “Biochemical characterization of RecBCD enzyme from an Antarctic Pseudomonas species and identification of its cognate Chi (χ) sequence” (PLoS ONE, 2018) come the findings set out here.

The test system of this data set is Nc1ncnc2c1ncn2[C@@H]1O[C@H](COP(=O)(O)OP(=O)(O)OP(=O)(O)O)[C@@H](O)[C@H]1O. Nature of the data set: purified protein. The note with it: 22 °C, pH 7.5, 1 mM Mg acetate, NdeI-linearized pBR322 dsDNA, ATP sites in RecB and RecD.

Text: TLC ATPase assay with [γ-32P]ATP tracer on RecBCD^Ps (RecBCD enzyme of Pseudomonas syringae Lz4W)

Consider “RecBCD^Ps (RecBCD enzyme of Pseudomonas syringae Lz4W) (Pseudomonas syringae)”, for which the Km worked out at 57.8 ± 10.1 µM and the kcat is 245 s⁻¹.

As usually defined, the Km is the concentration of substrate that gives half-maximal velocity. As usually defined, the kcat is the number of substrate molecules converted per active site and unit of time at saturation.
